Results published in the supplement of paper PMC7125110.
± gives the standard error. For part of these data: This sample holds only a part of the variants without activity.

B1: glmS ribozyme (parent)
chain: AUAAAAGCGCCAGAACUACAGAAAUGUAGUUGACGAGGAGGAGGUUUAUCGAAUUUUCGGCGGAUGCCUCCAAA

Assays:
Details in all cases: with glucosamine-6-phosphate
[1] = variants of: B1; assay: kcat; higher = faster cleavage; RNA array
In short: (§1)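 A hybridised Cy3 probe tracked barcoded ribozyme variants, transcribed in situ by E. coli RNA polymerase on sequenced MiSeq chips, at 37 °C. The variants received 40 μM to 10 mM glucosamine-6-phosphate in HEPES/KCl/Mg(OAc)2 buffer. kobs came from decay fits and kcat and KM from weighted Michaelis–Menten fits.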

[2] = variants of: B1; assay: self-cleavage kobs at 640 uM GlcN6P; higher = faster cleavage; RNA array
In short: as §1

[3] = variants of: B1; assay: self-cleavage kobs at 2500 uM GlcN6P; higher = faster cleavage; RNA array
In short: as §1

[4] = variants of: B1; assay: self-cleavage kobs at 40 uM GlcN6P; higher = faster cleavage; RNA array
In short: as §1

[5] = variants of: B1; assay: self-cleavage kobs at 160 uM GlcN6P; higher = faster cleavage; RNA array
In short: as §1

[6] = variants of: B1; assay: self-cleavage kobs at 10000 uM GlcN6P; higher = faster cleavage; RNA array
In short: as §1

[7] = variants of: B1; assay: KM; higher = weaker cofactor use; RNA array
In short: as §1

Row | Variant | kcat [1] | self-cleavage kobs at 640 uM GlcN6P [2] | self-cleavage kobs at 2500 uM GlcN6P [3] | self-cleavage kobs at 40 uM GlcN6P [4] | self-cleavage kobs at 160 uM GlcN6P [5] | self-cleavage kobs at 10000 uM GlcN6P [6] | KM [7]
1 | AUAAAAGCGCCAAAACUACAGAAAUGUAGUAAACGAGGAGGAGGUUUAUGGAAUUUUCGGCGGAUGGCUCCAAA [G13A U31A G32A C50G C67G] | 4.8e-05 ± 1.5e-05 s⁻¹ | 4.97e-05 ± 2.2e-05 s⁻¹ | 5.25e-05 ± 1.8e-05 s⁻¹ | – | – | – | –
2 | AUAAAAGCGCCAAAACUACAGAAAUGUAGUUGACGAGGAGGAGGUUUAUCGAAAUUUCGGCGGAUGCCUCCAAA [G13A U54A] | 0.000832 ± 0.00029 s⁻¹ | 0.000147 ± 3.8e-05 s⁻¹ | 0.000299 ± 5.6e-05 s⁻¹ | 5.62e-05 ± 2.4e-05 s⁻¹ | 5.51e-05 ± 1.6e-05 s⁻¹ | 0.000709 ± 0.0001 s⁻¹ | –
3 | AUAAAAGCGCCAAAACUACAGAAAUGUAGUUGACGAGGAGGAGGUUUAUCGAAGUUUCGGCGGAUGCCUCCAAA [G13A U54G] | 0.000682 ± 7.9e-05 s⁻¹ | 0.000123 ± 2.4e-05 s⁻¹ | 0.000363 ± 6.1e-05 s⁻¹ | – | 5.52e-05 ± 1.8e-05 s⁻¹ | 0.000537 ± 7.4e-05 s⁻¹ | 2540 ± 550 µM
4 | AUAAAAGCGCCAAAACUACAGAAAUGUAGUUGACGAGGAGGAGGUUUAUCGAAUCUUCGGCGGAUGCCUCCAAA [G13A U55C] | 0.000582 ± 0.00014 s⁻¹ | 0.000123 ± 1.6e-05 s⁻¹ | 0.000191 ± 3.5e-05 s⁻¹ | – | 3.73e-05 ± 1.6e-05 s⁻¹ | 0.000492 ± 4.8e-05 s⁻¹ | 2910 ± 1300 µM
5 | AUAAAAGCGCCAAAACUACAGAAAUGUAGUUGACGAGGAGGAGGGUUAUCGAAUUUUCGGCGGAUGCCUCCAAA [G13A U45G] | 8.96e-05 ± 7.9e-06 s⁻¹ | – | 3.13e-05 ± 8.3e-06 s⁻¹ | – | – | 6.32e-05 ± 1e-05 s⁻¹ | 4310 ± 840 µM
6 | AUAAAAGCGCCAAAACUACAGAAAUGUAGUUGACGAGGAGAAGGUUUAUCGAAUUUUCGGCGGAUGCCUCCAAA [G13A G41A] | 6.21e-05 ± 2.2e-06 s⁻¹ | – | 3.77e-05 ± 1.2e-05 s⁻¹ | – | – | 5.25e-05 ± 8.1e-06 s⁻¹ | 1770 ± 270 µM
7 | AUAAAAGCGCCAAAACUACAGAAAUGUAGUUGACGAGGAGUAGGUUUAUCGAAUUUUCGGCGGAUGCCUCCAAA [G13A G41U] | 5.73e-05 ± 8.7e-06 s⁻¹ | – | – | < 1e-05 s⁻¹ | – | – | –
8 | AUAAAAGCGCCAAAACUACAGAAAUGUAGUGGACGAGGAGGAGGUUUAUCGAAUUUUCGGCGGAUGCCUCCAAA [G13A U31G] | 0.000328 ± 7.1e-05 s⁻¹ | – | 6.35e-05 ± 1.5e-05 s⁻¹ | – | – | 0.000153 ± 2.2e-05 s⁻¹ | –
9 | AUAAAAGCGCCAAAACUACAGAAAUGUAGUUGACGAGGAGGAGGUUCAUCGAAUUUUCGGCGGAUGCCUCCAAA [G13A U47C] | 8.51e-05 ± 5.3e-06 s⁻¹ | – | – | – | – | 4.92e-05 ± 1.1e-05 s⁻¹ | 7300 ± 1000 µM
10 | AUAAAAGCGCCAAAACUACAGAAAUGUAGUUGACGAGGAGGAGGUUGAUCGAAUUUUCGGCGGAUGCCUCCAAA [G13A U47G] | 0.000123 ± 1.6e-05 s⁻¹ | 2.44e-05 ± 9.5e-06 s⁻¹ | 8.26e-05 ± 1.3e-05 s⁻¹ | – | – | 9.97e-05 ± 1.3e-05 s⁻¹ | 1830 ± 670 µM
